The assay addresses T1, N-terminal domain of GpsB (GpsB 1-75) (S. aureus, UniProt Q2FYI5 1-75).
T1 construct: GpsB, S. aureus, amino acids 1-75 (N-terminal domain); source: E. coli BL21 (DE3), purified (Ni-NTA, SUMO protease, second Ni-NTA); not shown: His, N-terminal, cleaved; SUMO, N-terminal, cleaved
T1 sequence (looked up): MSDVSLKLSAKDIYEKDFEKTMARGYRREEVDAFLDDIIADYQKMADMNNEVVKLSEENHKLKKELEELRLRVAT
As to the kind of experiment: SEC; GpsB(1-75) at 90 uM mixed with SUMO-FacZ at 30 uM in 500 ul, salt 150-200 mM; Superdex75 Increase 10/300 in 20 mM HEPES pH 7.6, 100 mM NaCl, 1 mM DTT, 0.5 ml/min. Conditions: both partners purified. (In general: In gel filtration, larger molecules generally elute earlier.)

B1: His-SUMO fusion bearing a 3x concatenation of residues 127-146 of FacZ (native motif NRHYRR) (domain or fragment)
chain: EIADKWQNRHYRRGSANYKAGSAGEIADKWQNRHYRRGSANYKAGSAGEIADKWQNRHYRRGSANYKA
notes: FacZ (factor preventing extra Z-rings), S. aureus, residues 127-146, first of three repeats; linker; FacZ, S. aureus, residues 127-146, second repeat; FacZ, S. aureus, residues 127-146, third repeat; The methods call the stretch 127-145, the results and legends 127-146; also called SUMO-3x-FacZ (127-146); His-SUMO-FacZ_(127-145); source: E. coli BL21 (DE3), purified (Ni-NTA); not shown: His, …
Consider B1, for which the binding result is reported as “binds”.
